The source of these data is patent US8003345B2, “Antioxidant pharmaceutical compound, method for producing polypeptide and method of cure” (Institute of Cell Biophysics Russian Academy of Sciences, priority 2002, dated 2011).

The subject of series [1] is Wistar line rats subjected to gamma-irradiation. Kind of series: Survival of rats after gamma-irradiation at a dose of 6 Gy. The following applies: for number of rats survived: groups of 6 rats, intravenous before irradiation.
Experimental: The radioprotector properties of peroxiredoxin in experiments in vivo are determined on an example of protecting animals from the action of gamma-irradiation in a sublethal dose with an intensity of 6 Gy.
Simultaneous irradiation of all animals (Wistar line rats weighing 200 grams) was carried out on a GUBE apparatus. The exposure dose was 6 Gy. The rats were divided into two groups. The first group of the animals (n=6) was used for control. The animals of the second group (n=6) 30-60 minutes before the irradiation were administered intravenously with 1 mg of peroxiredoxin Prx VI (1 ml of physiological solution at the peroxiredoxin concentration of 1 μg/ml). After the irradiation the animals were kept in common premises with sufficient amount of food, illumination and ventilation. For histological investigation animals with symptoms of worsened general conditions were chose from each group.
Series [2] deals with tracheal epithelium of rat after application of lipopolysaccharide. Kind of series: Inflammation of rat tracheal epithelium caused by lipopolysaccharide (LPS). In kind it is in vivo. How it is done:
The therapeutic properties of peroxiredoxin Prx VI in treating the upper respiratory tract of rat immediately after the application of LPS were checked on a group of 4 Wistar line rats weighing 150-200 grams. The application of LPS was carried out in the following manner. The rats were anesthetized with hexenal, and 100 μl of a lipopolysaccharide solution were introduced through a catheter (the lipopolysaccharide concentration was from 10^−9 to 10^−11 mg/ml, the total number of the used animals was 20). After the application of the lipopolysaccharide, the rats were maintained for a definite period of time (1 hour, 3 hours, 6 hours, 7 hours, 9 hours), then narcotized with hexenal (300 mg/kg weight), and a sample of the tracheal epithelial tissue was isolated. For histochemical investigations the isolated sample was placed into a fixing solution containing 2% of formaldehyde and 0.5% of glutaraldehyde. The tissue was dehydrated by sequential routing through ethyl alcohol with increasing concentration (40-100%). The tissue was embedded into LR white resin. The resin was polymerized at room temperature. 0.5 em-thick sections were made on an LKB ultratome (Sweden), using glass knives. The sections were stained with a hematoxylin-eosine and analyzed under a light microscope.
For biochemical investigations we scraped the epithelium with a thin spatula, washed off the scrape with physiological solution and centrifugated at 10000 g for 15 min. The concentration of hydrogen peroxide was by the luminescence method. […] After LPS, application of a solution of a composition based on peroxiredoxin Prx VI into the trachea was carried out. Preliminarily the rats were narcotized by intraperitoneal administration of hexenal (70 mg/kg), the animals were fixed on an operating table, and under visual control with the aid of a binocular lens, through a catheter of 1 mm in diameter, peroxiredoxin solution (20 to 100 μl) was introduced into the trachea. The peroxiredoxin concentration was from 0.5 to 5.0 mg/ml. A 0.9% solution of NaCl was used as the solvent. The application of the solution of the composition was carried out once, immediately after the application of LPS. The application of pure solvent, solutions of serum albumin (10 mg/ml) and of glutathione (10 mM) were used as control.
Histological investigation of the trachea was carried out 24 hrs after the LPS application.

Series [3] in a line: Cytotoxicity: number of live line L929 cells. The following applies: 0.1-10 μg/ml concentration; Trypan stain. In kind it is cell-based, human. Here is the method: (§1) The cytotoxicity is determined from the influence of recombinant Prx V1hum or of natural rat Prx V1rat on the level of proliferation of line L929 human lymphoblastoma cells and of T-lymphocytes from the spleen of line NRRI rats stimulated with concavalin A.
(§2) Cells of two lines with the concentration of 10^4 cells/ml medium were cultivated in RPMI 1640 containing 5% of bovine fetal serum. The stimulation of T-lymphocytes was carried out with the 0.1 μg/ml concentration of concavalin. In the case of T-lymphocytes the proliferation level was determined from the inclusion of ^3H-thymidine. The number of live line L929 cells was determined in a 96-cell plate with the aid of a Trypan stain, followed by scanning on a Multiscan multichannel photometer (LKB, Sweden).

Series [4] relates to T-lymphocytes from the spleen of line NRRI rats stimulated with concavalin A. In words: Proliferation of concanavalin A-stimulated T-lymphocytes (3H-thymidine inclusion). The series is classed as cell-based. Particulars: 0.1-1.0 mg/ml concentration, against cells stimulated only with concavalin A. Here is the method: as §1, §2

B1: Prx VIhum: recombinant full-size human peroxiredoxin Prx VI, 224 amino acids (SEQ ID NO: 1), produced in E.coli (protein)
chain: MPGGLLLGDVAPNFEANTTVGRIRFHDFLGDSWGILFSHPRDFTPVCTTELGRAAKLAPEFAKRNVKLIALSIDSVEDHLAWSKDINAYNCEEPTEKLPFPIIDDRNRELAILLGMLDPAEKDEKGMPVTARVVFVFGPDKKLKLSILYPATTGRNFDEILRVVISLQLTAEKRVATPVDWKDGDSVMVLPTIPEEEAKKLFPKGVFTKELPSGKKYLRYTPQP
On to B1, for which the “number of rats survived” value in series [1] (3 months, 6 Gy) is reported as 6; in series [1] (6 months, 6 Gy) it was 5; in series [1] (12 months, 6 Gy), 4; in series [1] (15 months, 6 Gy) it was 4. Moreover, the “mortality of the rats” value in series [1] (administered before irradiation, 6 Gy, versus control group) is recorded as “essentially lower than in the control group”. In addition, in series [1] (one year after the irradiation, compared with the control group), the “general condition of the survived animals” value was “differed markedly in favor of the second group”. Further, in series [1] (single injection into a vein 30 minutes before irradiation, 6 Gy), the “number of irradiation-associated malignant neoplasms” value is recorded as “diminish the number of irradiation -associated malignant neoplasms”. Further, the “preservation of the tracheal epithelium” value in series [2] (24 hrs after LPS, application immediately after the LPS, FIG. 9B) is “Complete preservation of the epithelium”. Besides, the “Integrity of tracheal epithelium (according to histological data)” value in series [2] (Time after the action of LPS: 1 hour) was 90%; in series [2] (Time after the action of LPS: 3 hours), 80%; in series [2] (Time after the action of LPS: 6 hours), 65%. For the same molecule, in series [3], the “effect on the number of live line L929 cells” value is “did not produce any effect”. For the same molecule, the “cell proliferation level of T-lymphocytes stimulated with concavalin A” value in series [4] is “increased approximately twofold”.
